The values below are quoted from earlier work in PMC3415683.

In general, Kd refers to the equilibrium constant for the complex coming apart.

The data set concerns the target Dll-1 DSL-EGF3 (Homo sapiens) (UniProt O00548). As to the kind of experiment: SPR. In general terms: In SPR one partner is held on a chip, and binding of the other changes the refractive index at the surface.
UniProt O00548, sequence (O00548 177-325): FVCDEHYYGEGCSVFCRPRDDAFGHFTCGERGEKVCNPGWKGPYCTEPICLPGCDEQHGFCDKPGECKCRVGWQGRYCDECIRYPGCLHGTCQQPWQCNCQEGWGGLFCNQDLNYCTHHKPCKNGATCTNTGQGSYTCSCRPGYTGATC

Regarding Notch1 EGF11-14 (from UniProt P46531), the Kd is 130 µM.
